Series [1] deals with rat CNS myelin (spinal cord myelin membrane fraction). The series can be described thus: cell-based or functional assay.
Series [2] addresses 35 kD CNS myelin associated inhibitory protein from rat CNS myelin (rat). The series can be described thus: cell-based or functional assay.
Series [3] addresses CNS myelin protein liposomes (total rat CNS myelin protein reconstituted in lipid vesicles). Kind of series: cell-based or functional assay.
Series [4] addresses 250 kD CNS myelin associated inhibitory protein from rat CNS myelin (rat). The series can be described thus: cell-based or functional assay.
Series [5] concerns the target 35 kD CNS myelin associated inhibitory protein from rat CNS myelin (rat). The series can be described thus: solid phase radioimmunoassay on liposomes with gel-extracted protein, 125I goat anti-mouse, background subtracted.
The target of series [6] is 250 kD CNS myelin associated inhibitory protein from rat CNS myelin (rat). The series is described as above.
Series [7] addresses rat CNS myelin (spinal cord myelin membrane fraction). Kind of series: solid phase radioimmunoassay, antigen-coated wells, hybridoma supernatant, 125I goat anti-mouse, background subtracted.
In series [8] the target is rat CNS myelin, trypsin-treated. The description is as above.
For series [9], the target named is rat PNS myelin (sciatic nerve myelin membrane fraction). The description is as above.
Series [10] has as its system T1, cbz-FAF[125I]Y-NH2.
T1 sequence: FAFY

tissue-type plasminogen activator (tPA), sequence (P00750 36-562): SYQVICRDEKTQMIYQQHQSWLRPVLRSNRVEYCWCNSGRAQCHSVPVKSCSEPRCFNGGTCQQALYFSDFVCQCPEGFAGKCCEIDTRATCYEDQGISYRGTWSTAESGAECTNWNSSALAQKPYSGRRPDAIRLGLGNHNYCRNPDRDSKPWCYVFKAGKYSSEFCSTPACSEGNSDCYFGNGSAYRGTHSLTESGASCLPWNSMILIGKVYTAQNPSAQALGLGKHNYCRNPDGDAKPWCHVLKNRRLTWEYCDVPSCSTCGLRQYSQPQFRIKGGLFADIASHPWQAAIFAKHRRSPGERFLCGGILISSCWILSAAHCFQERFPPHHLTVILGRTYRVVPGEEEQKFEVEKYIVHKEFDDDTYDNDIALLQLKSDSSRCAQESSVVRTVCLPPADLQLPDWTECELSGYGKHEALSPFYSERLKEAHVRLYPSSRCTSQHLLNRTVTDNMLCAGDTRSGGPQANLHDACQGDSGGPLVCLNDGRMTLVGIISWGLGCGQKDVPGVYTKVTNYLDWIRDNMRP

Consider monoclonal antibody IN-1, for which, in series [1], the 3T3 Spreading (µm^2) on liposomes of IN-1-immunoprecipitated myelin protein, Protocol 1 is 218 µm^2 and the 3T3 Spreading (µm^2) on liposomes of IN-1-immunoprecipitated myelin protein, Protocol 2 amounted to 215 µm^2. In addition, the 3T3 Spreading (µm^2) on 35 kD liposomes made from IN-1-precipitated protein, Protocol 2 in series [2] came to 270 µm^2. In series [3], this substance gave a 3T3 spreading value on CNS lipos. preadsorbed with IN-1 (no antibody: 1.11) of 2030 µm^2; a % inhibition of 3T3 spreading on CNS lipos. preadsorbed with IN-1 (no antibody: 45) of 10%; a % inhibition of C6 spreading on CNS lipos. preadsorbed with IN-1, 0.3 mM 1,10-phenanthroline (no antibody: 46) of 11%; a C6 spreading value on CNS lipos. preadsorbed with IN-1, 0.3 mM 1,10-phenanthroline (no antibody: 1.35) of 2250 µm^2. In series [4], this substance returned a 3T3 Spreading (µm^2) on 250 kD liposomes made from IN-1-precipitated protein, Protocol 2 of 245 µm^2. The same substance showed an Amount of Antibody Bound (cpm of 125I-Labeled Goat Anti-Mouse) in series [5] of 350 cpm. The substance also came in with an Amount of Antibody Bound (cpm of 125I-Labeled Goat Anti-Mouse) in series [6] of 250 cpm. In series [7], this substance displayed an Amount of Antibody Bound (cpm of 125I-Labeled Goat Anti-Mouse) of 550 cpm. In series [8], this substance showed an Amount of Antibody Bound (cpm of 125I-Labeled Goat Anti-Mouse) of 25 cpm. In addition, the Amount of Antibody Bound (cpm of 125I-Labeled Goat Anti-Mouse) in series [9] worked out at 80 cpm.
For the substance trypsin, the Amount necessary to degrade 50% of substrate in 30 min in [10] was 0.3 µg.
Consider “C6 plasma membrane associated metalloendoprotease (rat C6 glioblastoma cells) (enzyme)”, for which, in [1], the 3H-Thymidine Incorporation (%) of 3T3 cells on CNS myelin preincubated with C6 PM (untreated CNS myelin: 30) is 83% and the 3T3 Cell Spreading (%) on CNS myelin preincubated with C6 PM (untreated CNS myelin: 15) was 52%.
For the substance tissue-type plasminogen activator (tPA), in [10], the Amount necessary to degrade 50% of substrate in 30 min is greater than 100 µg.
Consider cathepsin D, for which, in [10], the Amount necessary to degrade 50% of substrate in 30 min [µg], pH 4.0 was 0.005 µg and the Amount necessary to degrade 50% of substrate in 30 min [µg], pH 7.4 is greater than 100 µg.
urokinase (uPA) gave an Amount necessary to degrade 50% of substrate in 30 min in series [10] greater than 100 µg.
Consider collagenase, for which the Amount necessary to degrade 50% of substrate in 30 min in series [10] was 3 µg.
For “C6 plasma membrane associated metalloendoprotease (rat C6 glioblastoma cells)”, in series [10], the Amount necessary to degrade 50% of substrate in 30 min [µg], total C6 PM protein came to 1.5 µg and the “cbz-FAF[125I]Y-NH2 degradation by the plasma membrane fraction (5 µg)” value turned out to be 2.7 nmol/min.

Source of the values: US6960559.
